Test results published in article PMC11032447.
pKd: −log10 of the molar value.

What was measured:
Assay in all cases: ITC; secretagogin construct in the cell (10-100 µM), partner in the syringe (80-1500 µM); 25 mM HEPES pH 8.0, 150 mM NaCl, 2 mM CaCl2; 20 °C; MicroCal iTC200; single-site binding model
[1] = target: mouse secretagogin M229A (mouse) (UniProt Q91WD9)
[2] = target: mouse secretagogin V233A (mouse) (UniProt Q91WD9)
[3] = target: mouse secretagogin L270A (mouse) (UniProt Q91WD9)
[4] = target: mouse secretagogin R198A (mouse) (UniProt Q91WD9)
Sequence of mouse secretagogin R198A (mouse) (Q91WD9 whole entry R198A): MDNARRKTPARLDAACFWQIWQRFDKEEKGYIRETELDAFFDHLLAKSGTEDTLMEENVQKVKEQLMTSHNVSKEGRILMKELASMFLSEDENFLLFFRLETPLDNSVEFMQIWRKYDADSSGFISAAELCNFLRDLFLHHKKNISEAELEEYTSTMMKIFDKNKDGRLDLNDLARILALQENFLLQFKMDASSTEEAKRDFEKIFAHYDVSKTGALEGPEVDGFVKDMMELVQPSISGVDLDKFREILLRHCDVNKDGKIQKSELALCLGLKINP

[5] = target: mouse secretagogin M229E (mouse) (UniProt Q91WD9)
Sequence of mouse secretagogin M229E (mouse) (Q91WD9 whole entry M229E): as the sequence (Q91WD9 whole entry R198A) above, with A198R, M229E counted along it

[6] = target: mouse secretagogin (mouse) (UniProt Q91WD9)
Sequence of mouse secretagogin (mouse) (Q91WD9 whole entry): as the sequence (Q91WD9 whole entry R198A) above, with A198R counted along it

Sequence of mouse secretagogin V233A (mouse) (Q91WD9 whole entry V233A): as the sequence (Q91WD9 whole entry R198A) above, with A198R, V233A counted along it
Sequence of mouse secretagogin L270A (mouse) (Q91WD9 whole entry L270A): as the sequence (Q91WD9 whole entry R198A) above, with A198R, L270A counted along it
Sequence of mouse secretagogin M229A (mouse) (Q91WD9 whole entry M229A): as the sequence (Q91WD9 whole entry R198A) above, with A198R, M229A counted along it

| pKd [1] | pKd [2] | pKd [3] | pKd [4] | pKd [5] | pKd [6] | Substance |
| --- | --- | --- | --- | --- | --- | --- |
| 5.79 | 6.90 | 4.79 | 6.09 | 5.28 | – | Hb helix of the Habc domain of mouse syntaxin-4, His6-tagged (domain or fragment) |
| – | – | – | – | – | 4.85 | Habc domain of mouse syntaxin-4, His6-tagged (from UniProt P70452 1-298) (domain or fragment) |
| – | – | – | – | – | 5.18 | Ha helix of the Habc domain of mouse syntaxin-4, His6-tagged (from UniProt P70452 1-298) (domain or fragment) |
